Results as given in the supplement of paper PMC9428881.
± gives the standard error.

experiment: background-corrected fluorescence of 3'-dye-labeled ssDNA relative to brightest sequence (3'-GCGCG) (fraction); higher = brighter dye fluorescence (less quenching); settings: dye: Cy5 (3' terminal)
In short: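 Single-stranded DNA was built on glass slides by light-directed phosphoramidite synthesis, ending in a 3' Cy3 or Cy5 dye beside each of 1024 permuted pentamers. Arrays were washed in acetonitrile for 2 h at r.t., then scanned at 532 or 635 nm before and after overnight ethylenediamine/ethanol deprotection. Each value averages 10 features per array and at least 3 syntheses. Fluorescence, corrected by subtracting unlabeled-oligo background, is scaled to the brightest sequence.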

Sequence	background-corrected fluorescence
TTTTTTGCTCATGATCATGCTTTTTTTTTTTTTTTAGCGA	0.58 ± 0.052
TTTTTTGCTCATGATGAGCATTTTTTTTTTTTTTTAGCCT [TCCGA]	0.394 ± 0.083
TTTTTTGCTCATGATGATCATTTTTTTTTTTTTTTAGCCG [GCCGA]	0.437 ± 0.029
TTTTTTGCTCATGATGATGATTTTTTTTTTTTTTTAGCCC [CCCGA]	0.304 ± 0.018
TTTTTTGCTCATGATGATGCTTTTTTTTTTTTTTTAGCCA [ACCGA]	0.394 ± 0.023
TTTTTTGCTCATGATGCGCATTTTTTTTTTTTTTTAGCAT [TACGA]	0.405 ± 0.032
TTTTTTGCTCATGATGCTCATTTTTTTTTTTTTTTAGCAG [GACGA]	0.42 ± 0.02
TTTTTTGCTCATGATGCTGATTTTTTTTTTTTTTTAGCAC [CACGA]	0.328 ± 0.012
TTTTTTGCTCATGATGCTGCTTTTTTTTTTTTTTTAGCAA [AACGA]	0.427 ± 0.03
TTTTTTGCTCATGCGCAGCATTTTTTTTTTTTTTTAGATT	0.41 ± 0.018
TTTTTTGCTCATGCGCATCATTTTTTTTTTTTTTTAGATG [GTAGA]	0.439 ± 0.018
TTTTTTGCTCATGCGCATGATTTTTTTTTTTTTTTAGATC [CTAGA]	0.359 ± 0.023
TTTTTTGCTCATGCGCATGCTTTTTTTTTTTTTTTAGATA [ATAGA]	0.434 ± 0.019
TTTTTTGCTCATGCTCAGCATTTTTTTTTTTTTTTAGAGT [TGAGA]	0.503 ± 0.029
TTTTTTGCTCATGCTCATCATTTTTTTTTTTTTTTAGAGG [GGAGA]	0.525 ± 0.055
TTTTTTGCTCATGCTCATGATTTTTTTTTTTTTTTAGAGC [CGAGA]	0.435 ± 0.046
TTTTTTGCTCATGCTCATGCTTTTTTTTTTTTTTTAGAGA	0.519 ± 0.029
TTTTTTGCTCATGCTGAGCATTTTTTTTTTTTTTTAGACT [TCAGA]	0.389 ± 0.039
TTTTTTGCTCATGCTGATCATTTTTTTTTTTTTTTAGACG [GCAGA]	0.443 ± 0.033
TTTTTTGCTCATGCTGATGATTTTTTTTTTTTTTTAGACC [CCAGA]	0.331 ± 0.02
TTTTTTGCTCATGCTGATGCTTTTTTTTTTTTTTTAGACA [ACAGA]	0.383 ± 0.029
TTTTTTGCTCATGCTGCGCATTTTTTTTTTTTTTTAGAAT [TAAGA]	0.449 ± 0.024
TTTTTTGCTCATGCTGCTCATTTTTTTTTTTTTTTAGAAG [GAAGA]	0.456 ± 0.025

Sequence	background-corrected fluorescence
TTTTTTGCTCATGCTGCTGATTTTTTTTTTTTTTTAGAAC [CAAGA]	0.358 ± 0.022
TTTTTTGCTCATGCTGCTGCTTTTTTTTTTTTTTTAGAAA [AAAGA]	0.484 ± 0.055
TTTTTTGCTGAGCAGCAGCATTTTTTTTTTTTTTTACTTT [TTTCA]	0.37 ± 0.022
TTTTTTGCTGAGCAGCATCATTTTTTTTTTTTTTTACTTG [GTTCA]	0.4 ± 0.024
TTTTTTGCTGAGCAGCATGATTTTTTTTTTTTTTTACTTC [CTTCA]	0.312 ± 0.027
TTTTTTGCTGAGCAGCATGCTTTTTTTTTTTTTTTACTTA [ATTCA]	0.379 ± 0.027
TTTTTTGCTGAGCATCAGCATTTTTTTTTTTTTTTACTGT [TGTCA]	0.45 ± 0.06
TTTTTTGCTGAGCATCATCATTTTTTTTTTTTTTTACTGG [GGTCA]	0.481 ± 0.023
TTTTTTGCTGAGCATCATGATTTTTTTTTTTTTTTACTGC [CGTCA]	0.365 ± 0.028
TTTTTTGCTGAGCATCATGCTTTTTTTTTTTTTTTACTGA [AGTCA]	0.475 ± 0.024
TTTTTTGCTGAGCATGAGCATTTTTTTTTTTTTTTACTCT [TCTCA]	0.331 ± 0.022
TTTTTTGCTGAGCATGATCATTTTTTTTTTTTTTTACTCG [GCTCA]	0.418 ± 0.03
TTTTTTGCTGAGCATGATGATTTTTTTTTTTTTTTACTCC [CCTCA]	0.3 ± 0.044
TTTTTTGCTGAGCATGATGCTTTTTTTTTTTTTTTACTCA	0.346 ± 0.028
TTTTTTGCTGAGCATGCGCATTTTTTTTTTTTTTTACTAT [TATCA]	0.392 ± 0.021
TTTTTTGCTGAGCATGCTCATTTTTTTTTTTTTTTACTAG [GATCA]	0.433 ± 0.025
TTTTTTGCTGAGCATGCTGATTTTTTTTTTTTTTTACTAC [CATCA]	0.328 ± 0.035
TTTTTTGCTGAGCATGCTGCTTTTTTTTTTTTTTTACTAA [AATCA]	0.413 ± 0.021
TTTTTTGCTGATCAGCAGCATTTTTTTTTTTTTTTACGTT [TTGCA]	0.433 ± 0.029
TTTTTTGCTGATCAGCATCATTTTTTTTTTTTTTTACGTG [GTGCA]	0.472 ± 0.028
TTTTTTGCTGATCAGCATGATTTTTTTTTTTTTTTACGTC [CTGCA]	0.373 ± 0.025
TTTTTTGCTGATCAGCATGCTTTTTTTTTTTTTTTACGTA [ATGCA]	0.465 ± 0.024
TTTTTTGCTGATCATCAGCATTTTTTTTTTTTTTTACGGT [TGGCA]	0.565 ± 0.045

Sequence	background-corrected fluorescence
TTTTTTGCTGATCATCATCATTTTTTTTTTTTTTTACGGG [GGGCA]	0.579 ± 0.05
TTTTTTGCTGATCATCATGATTTTTTTTTTTTTTTACGGC [CGGCA]	0.433 ± 0.049
TTTTTTGCTGATCATCATGCTTTTTTTTTTTTTTTACGGA [AGGCA]	0.588 ± 0.029
TTTTTTGCTGATCATGAGCATTTTTTTTTTTTTTTACGCT [TCGCA]	0.391 ± 0.029
TTTTTTGCTGATCATGATCATTTTTTTTTTTTTTTACGCG [GCGCA]	0.876 ± 0.027
TTTTTTGCTGATCATGATGATTTTTTTTTTTTTTTACGCC [CCGCA]	0.393 ± 0.027
TTTTTTGCTGATCATGATGCTTTTTTTTTTTTTTTACGCA	0.445 ± 0.028
TTTTTTGCTGATCATGCGCATTTTTTTTTTTTTTTACGAT [TAGCA]	0.429 ± 0.045
TTTTTTGCTGATCATGCTCATTTTTTTTTTTTTTTACGAG [GAGCA]	0.507 ± 0.078
TTTTTTGCTGATCATGCTGATTTTTTTTTTTTTTTACGAC [CAGCA]	0.38 ± 0.035
TTTTTTGCTGATCATGCTGCTTTTTTTTTTTTTTTACGAA [AAGCA]	0.452 ± 0.026
TTTTTTGCTGATGAGCAGCATTTTTTTTTTTTTTTACCTT [TTCCA]	0.351 ± 0.018
TTTTTTGCTGATGAGCATCATTTTTTTTTTTTTTTACCTG [GTCCA]	0.384 ± 0.02
TTTTTTGCTGATGAGCATGATTTTTTTTTTTTTTTACCTC [CTCCA]	0.271 ± 0.016
TTTTTTGCTGATGAGCATGCTTTTTTTTTTTTTTTACCTA [ATCCA]	0.366 ± 0.019
TTTTTTGCTGATGATCAGCATTTTTTTTTTTTTTTACCGT [TGCCA]	0.479 ± 0.034
TTTTTTGCTGATGATCATCATTTTTTTTTTTTTTTACCGG [GGCCA]	0.551 ± 0.059
TTTTTTGCTGATGATCATGATTTTTTTTTTTTTTTACCGC [CGCCA]	0.406 ± 0.026
TTTTTTGCTGATGATCATGCTTTTTTTTTTTTTTTACCGA [AGCCA]	0.515 ± 0.031
TTTTTTGCTGATGATGAGCATTTTTTTTTTTTTTTACCCT [TCCCA]	0.34 ± 0.021
TTTTTTGCTGATGATGATCATTTTTTTTTTTTTTTACCCG [GCCCA]	0.411 ± 0.03
TTTTTTGCTGATGATGATGATTTTTTTTTTTTTTTACCCC [CCCCA]	0.271 ± 0.027
